Results taken from patent US20240352438A1, “MEANS AND METHODS FOR DETOXIFYING OCHRATOXIN A” (DSM Austria GmbH, priority 2021, published 2024).

Key:
[1] = OTA detoxification activity assay (specific activity, fluorescence reduction ex/em 390/450 nm); assay type: biochemical; conditions: SEQ ID NO: 1 = 100%
How it was run: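 Recombinant enzyme preparation with 200 ng/mL OTA in 100 mM sodium phosphate, at pH 6.0 and pH 7.5, 37° C. Degradation followed as the fall in fluorescence at ex/em 390/450 nm. Specific activity taken from the initial linear slope; one unit degrades 1 μmol OTA per min at a starting OTA of […].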

[2] = Thermostability assay: residual OTA detoxification activity after 10 min incubation at 45-99° C. (T50); assay type: physicochemical; conditions: 0.1 mg/mL protein in 20 mM Tris-HCl pH 7.5, residual OTA detoxification activity relative to 4° C. reference aliquot
How it was run: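 Purified enzyme at 0.1 mg/mL in 20 mM Tris-HCl pH 7.5 was heated 10 min at 45–99 °C, then held at 4 °C. Residual OTA detoxification activity was expressed relative to an aliquot kept at 4 °C throughout; T50 is the temperature range giving 50% activity loss.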

Row | Molecule | Specific OTA detoxification activities in % compared to the enzyme of SEQ ID NO: 1, pH 6.0 [1] | Specific OTA detoxification activities in % compared to the enzyme of SEQ ID NO: 1, pH 7.5 [1] | T50 (temperature at which 50% of the initial activity was maintained) [2]
1 | 69 (protein, exemplary polypeptide) MTTRTRILTAFLSLLAANACAADAAPAAPHTVVLRAARMFDGASGKLVDHPQLTIVGNKIVRIAQGDKAEVPAGAEVVDLGDATLLPGFIDAHVHLSGQSSDNWYGDFFDNMMRFPAEQALYGAYYARITLEAGFTSVRDVGSTDWVALGLRNAIDAGKVPGPRMLVSNYAVGSTGGHADMDPIPPHKLPLAGPLQGVCNGPEECRAAVRYQIKYGANVIKFMPSGGVLSLSDPVDAPELSQDEMNAVIGESHAWGRKVAAHAHGDKAAKMAVAAGVDSIEHGSFIEDDTLRAMKAKNVYLVPTISAIAHVEEKIGTFPPVIAEKGRAAAAHLRQTFRHAVQIGVPIALGTDAGVGAHGSNAREFRYMVENGLTPAQALLAGTANAARLLGTFDRVGTLEAGKLADVVAVPGNPIADITVTERPLFVMKDGVVVRRDAVR | 102% | 75% | <63.2 °C
2 | 71 (protein, exemplary polypeptide) MTTRTRILTAFLSLLAANACAADAAPAAPHTVVLRAARMFDGASGKLVDHPQLTIVGNKIVRIAQGDKAEVPAGAEVVDLGDATLLPGFIDAHVHLSGQSSDNWYGDFFDNMMRFPAEQALYGAYYARITLEAGFTSVRDVGSTDWVALGLRNAIDAGKVPGPRMLVSNYAVGSTGGHADQDPIPPHKLPLAGPLQGVCNGPEECRAAVRYQIKYGANVIKFMPSGGVLSLSDPVDAPELSQDEMNAVIGESHAWGRKVAAHAQGDKAAKMAVAAGVDSIEHGSFIEDDTLRAMKAKNVYLVPTISAIAHVEEKIGTFPPVIAEKGRAAAAHLRQTFRHAVQIGVPIALGTDAGVGAHGSNAREFRYMVENGLTPAQALLAGTANAARLLGTFDRVGTLEAGKLADVVAVPGNPIADITVTERPLFVMKDGVVVRRDAVR | 32% | 17% | 70.7-72.6 °C
3 | 80 (protein, exemplary polypeptide) MTTRTRILTAFLSLLAANACAADAAPAAPHTVVLRAARMFDGASGKLVDHPQLTIVGNKIVRIAQGDKAEVPAGAEVVDLGDATLLPGFIDAHVHLSGQSSDNWYGDFFDNMMRFPAEQALYGAYYARITLEAGFTSVRDVGSTDWVALGLRNAIDAGKVPGPRMLVSNYAVGSTGGHADQDPIPPHKLPLAGPLQGVCNGPEECRAAVRYQIKYGANVIKFMPSGGVLSLSDPVDAPELSQDEMNAVIGESHAWGRKVAAHAHGDKAAKMAVAAGVDSIEHGSFIEDDTLRAMKAKNVYLVPTISGIAHVEEKIGTFPPVIAEKGRAAAAHLRQTFRHAVQIGVPIALGTDAGAGAHGSNAREFRYMVENGLTPAQALLAGTANAARLLGTFDRVGTLEAGKLADVVAVPGNPIADITVTERPLFVMKDGVVVRRDAVR | 7% | 3% | 64.0-65.3 °C
4 | 70 (protein, exemplary polypeptide) MTTRTRILTAFLSLLAANACAADAAPAAPHTVVLRAARMFDGASGKLVDHPQLTIVGNKIVRIAQGDKAEVPAGAEVVDLGDATLLPGFIDAHVHLSGQSSDNWYGDFFDNMMRFPAEQALYGAYYARITLEAGFTSVRDVGSTDWVALGLRNAIDAGKVPGPRMLVSNYAVGSTGGHADLDPIPPHKLPLAGPLQGVCNGPEECRAAVRYQIKYGANVIKFMPSGGVLSLSDPVDAPELSQDEMNAVIGESHAWGRKVAAHAHGDKAAKMAVAAGVDSIEHGSFIEDDTLRAMKAKNVYLVPTISAIAHVEEKIGTFPPVIAEKGRAAAAHLRQTFRHAVQIGVPIALGTDAGVGAHGSNAREFRYMVENGLTPAQALLAGTANAARLLGTFDRVGTLEAGKLADVVAVPGNPIADITVTERPLFVMKDGVVVRRDAVR | 80% | 77% | <63.2 °C
5 | 77 (protein, exemplary polypeptide) MTTRTRILTAFLSLLAANACAADAAPAAPHTVVLRAARMFDGASGKLVDHPQLTIVGNKIVRIAQGDKAEVPAGAEVVDLGDATLLPGFIDAHVHLSGQSSDNWYGDFFDNMMRFPAEQALYGAYYARITLEAGFTSVRDVGSTDWVALGLRNAIDAGKVPGPRMLVSNYAVGSTGGHADQDPIPPHKLPLAGPLQGVCNGPEECRAAVRYQIKYGANVIKFMPSGGVLSLSDPVDAPELSQDEMNAVIGESHAWGRKVAAHAHGDKAAKMAVAAGVDSIEHGSFIEDDTLRAMKAKNVYLVPTISGIAHAEEKIGTFPPVIAEKGRAAAAHLRQTFRHAVQIGVPIALGTDAGVGAHGSNAREFRYMVENGLTPAQALLAGTANAARLLGTFDRVGTLEAGKLADVVAVPGNPIADITVTERPLFVMKDGVVVRRDAVR | 5% | 3% | 65.3-66.9 °C
6 | 72 (protein, exemplary polypeptide) MTTRTRILTAFLSLLAANACAADAAPAAPHTVVLRAARMFDGASGKLVDHPQLTIVGNKIVRIAQGDKAEVPAGAEVVDLGDATLLPGFIDAHVHLSGQSSDNWYGDFFDNMMRFPAEQALYGAYYARITLEAGFTSVRDVGSTDWVALGLRNAIDAGKVPGPRMLVSNYAVGSTGGHADQDPIPPHKLPLAGPLQGVCNGPEECRAAVRYQIKYGANVIKFCPSGGVLSLSDPVDAPELSQDEMNAVIGESHAWGRKVAAHAHGDKAAKMAVAAGVDSIEHGSFIEDDTLRAMKAKNVYLVPTISAIAHVEEKIGTFPPVIAEKGRAAAAHLRQTFRHAVQIGVPIALGTDAGVGAHGSNAREFRYMVENGLTPAQALLAGTANAARLLGTFDRVGTLEAGKLADVVAVPGNPIADITVTERPLFVMKDGVVVRRDAVR | 34% | 46% | 74.4-77.0 °C
7 | 73 (protein, exemplary polypeptide) MTTRTRILTAFLSLLAANACAADAAPAAPHTVVLRAARMFDGASGKLVDHPQLTIVGNKIVRIAQGDKAEVPAGAEVVDLGDATLLPGFIDAHVHLSGQSSDNWYGDFFDNMMRFPAEQALYGAYYARITLEAGFTSVRDVGSTDWVALGLRNAIDAGKVPGPRMLVSNYAVGSTGGHADQDPIPPHKLPLAGPLQGVCNGPEECRAAVRYQIKYGANVIKFAPSGGVLSLSDPVDAPELSQDEMNAVIGESHAWGRKVAAHAHGDKAAKMAVAAGVDSIEHGSFIEDDTLRAMKAKNVYLVPTISAIAHVEEKIGTFPPVIAEKGRAAAAHLRQTFRHAVQIGVPIALGTDAGVGAHGSNAREFRYMVENGLTPAQALLAGTANAARLLGTFDRVGTLEAGKLADVVAVPGNPIADITVTERPLFVMKDGVVVRRDAVR | 20% | 23% | 74.4-77.0 °C
